Results taken from the supplement of paper PMC6757056.
± gives the standard deviation of the averaged measurements.

B1: library; a variant is named by its letters at N, in order (parent)
chain: GCUGUCACCGGUGCUUGGUACGUUAUAUUCAGCCGGUCUGAUGAGUCUNNNNNNAGACGAAACAGC

Legend:
[1] = variants of: B1; assay: normalized RNA/DNA level without ligand (relative to sTRSVctl = 100) (log10 (% of sTRSVctl)); HEK293T overexpressing SLC46A1; higher = less ribozyme self-cleavage, higher mRNA level; conditions: without (6R,S)-folinic acid; ligand present: no
How it was run: (§1)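 For each 6-well well, 4 µg of library plasmid encoding mCherry-linked ribozyme switches, or eGFP-linked ones in some ligand experiments, was transfected into HEK293T. Any ligand was added 1 h before transfection, and RNA was extracted with EDTA 72 h after it, then reverse-transcribed, amplified, barcoded and sequenced. RNA level was obtained by dividing RNA reads by DNA reads, normalizing to a spiked-in non-cleaving sequence or to the top sequences, then scaling and log-transforming. The top set was 25 sequences, scaling was ×100 with log10, and ≥100 DNA reads were required.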

[2] = variants of: B1; assay: normalized RNA/DNA level with ligand (relative to sTRSVctl = 100) (log10 (% of sTRSVctl)); HEK293T overexpressing SLC46A1; ligand concentration (+) RNA-Seq: 6 mM; higher = less ribozyme self-cleavage, higher mRNA level; conditions: with (6R,S)-folinic acid; ligand present: yes
How it was run: as §1

Variant	normalized RNA/DNA level without ligand (log10) [1]	normalized RNA/DNA level with ligand (log10) [2]
GUCAAU	1.975 ± 0.018	2.02 ± 0.045
GUCAAC	2.0058 ± 0.0019	2.03 ± 0.03
GUCAAA	1.994 ± 0.009	1.99 ± 0.037
GUCCAU	1.9991 ± 3.5e-06	2.008 ± 0.016
GUCCAC	2.006 ± 0.011	2.011 ± 0.017
GUCCAA	1.992 ± 0.011	2.01 ± 0.035
UUCAAC	2.026 ± 0.015	2.02 ± 0.046
CUAUAC	2.001 ± 0.0069	2.01 ± 0.014
CUAUAU	2 ± 0.033	2.03 ± 0.063
CUAUAA	1.984 ± 0.0043	1.978 ± 0.0033
UUACUU	1.991 ± 0.0083	1.994 ± 0.019
UUACUA	1.978 ± 0.0023	2.01 ± 0.034
UUACUC	2.048 ± 0.0074	2.03 ± 0.027
CUAGAA	1.992 ± 0.016	2.018 ± 0.016
CUAGAG	1.92 ± 0.035	2.02 ± 0.042
CUAGAC	1.98 ± 0.017	1.986 ± 0.015
UUAUGC	1.989 ± 0.0091	2.02 ± 0.039
UUAUGG	1.798 ± 0.008	1.97 ± 0.0093
AUAUCG	1.962 ± 0.0099	2.03 ± 0.035
AUAUCA	2.0081 ± 0.00069	2.04 ± 0.036
AUAUCU	2.0373 ± 0.00034	2.05 ± 0.04
AUACGU	2.005 ± 0.0023	2.026 ± 0.01
AUACGC	2.015 ± 0.018	1.998 ± 0.013

Variant	normalized RNA/DNA level without ligand (log10) [1]	normalized RNA/DNA level with ligand (log10) [2]
UUAGAC	2 ± 0.01	2.01 ± 0.041
UUAGAU	1.946 ± 0.012	1.99 ± 0.021
GUCACU	2.02 ± 0.025	2.03 ± 0.042
GUCACA	1.991 ± 0.0044	1.996 ± 0.0028
UUACGG	2.018 ± 0.0069	2.049 ± 0.016
CUCCUG	2.07 ± 0.016	2.064 ± 0.014
CUCCUU	2.014 ± 0.016	2 ± 0.027
CUCCUA	2.02 ± 0.023	2.01 ± 0.033
CUCCUC	2.06 ± 0.057	1.99 ± 0.053
CUCACU	2.041 ± 0.0055	1.99 ± 0.021
CUCACC	2.06 ± 0.029	1.96 ± 0.048
CUCACA	2.036 ± 0.0022	2 ± 0.049
CUCACG	2.04 ± 0.027	2.028 ± 0.02
AUCGAU	1.98 ± 0.025	2.02 ± 0.031
AUCGAA	1.974 ± 0.0042	2 ± 0.02
GUAGGA	1.946 ± 0.0025	2 ± 0.047
GUAGGC	1.881 ± 0.011	2.0344 ± 0.00079
GUAGGU	1.998 ± 0.013	2.04 ± 0.03
GUAUUG	1.9409 ± 0.00012	2.003 ± 0.0063
GUAUUC	2.03 ± 0.025	2.021 ± 0.019
GUAUUA	2.005 ± 0.01	2 ± 0.072
UUCAGA	1.975 ± 0.011	2 ± 0.021
UUCAGU	1.9849 ± 0.0019	2.01 ± 0.043

Variant	normalized RNA/DNA level without ligand (log10) [1]	normalized RNA/DNA level with ligand (log10) [2]
UUCAGC	2.063 ± 0.016	2.048 ± 0.014
UUCCGC	2.03 ± 0.026	2.01 ± 0.039
UUCCGU	2.0373 ± 0.0012	2.05 ± 0.048
UUCCGG	2.025 ± 0.006	2.03 ± 0.031
UUAGGU	1.942 ± 0.0098	1.971 ± 0.016
AUCAAC	2.0326 ± 0.00048	2.01 ± 0.033
AUCAAG	1.93 ± 0.021	2 ± 0.026
AUCAAA	2.002 ± 0.0041	2 ± 0.04
AUCAAU	1.989 ± 0.0025	2 ± 0.053
AUCCGC	2.054 ± 0.019	2.032 ± 0.005
AUCCGU	2.023 ± 0.011	2.01 ± 0.027
AUCCGA	1.998 ± 0.0056	2.023 ± 0.0052
AUCCGG	2.0408 ± 0.002	2.05 ± 0.023
UUCGGA	1.961 ± 0.0071	2.024 ± 0.0051
UUCGGG	1.86 ± 0.024	2.01 ± 0.052
GUCCUU	2.005 ± 0.01	2.008 ± 0.019
GUCCUC	2.024 ± 0.02	2.05 ± 0.048
GUCCUG	2.02 ± 0.034	2.01 ± 0.021
GUCCUA	1.994 ± 0.015	2.02 ± 0.043
AUCAUC	2.01 ± 0.022	1.98 ± 0.031
AUCAUG	1.989 ± 0.009	2.005 ± 0.019
AUCAUA	1.98 ± 0.02	1.99 ± 0.046
AUCAUU	2.05 ± 0.024	2.03 ± 0.023

Variant	normalized RNA/DNA level without ligand (log10) [1]	normalized RNA/DNA level with ligand (log10) [2]
GUCCCG	2.004 ± 0.019	1.98 ± 0.024
GUCCCA	2.039 ± 0.0032	2.016 ± 0.0029
GUCCCU	2.05 ± 0.021	2.03 ± 0.03
GUACUG	2.002 ± 0.013	2.015 ± 0.017
AUAGUC	2.056 ± 0.0045	2.03 ± 0.033
AUAGUU	1.9853 ± 0.0008	2.009 ± 0.01
GUCAUC	2.0573 ± 0.0006	2.01 ± 0.0035
GUCAUU	2.068 ± 0.0023	2.007 ± 0.0048
GUCAUA	1.994 ± 0.0035	1.99 ± 0.055
CUCAAC	2.07 ± 0.029	2.045 ± 0.0073
CUCAAG	1.96 ± 0.024	2.01 ± 0.023
CUCAAA	2 ± 0.016	1.97 ± 0.032
UUCAUC	2.01 ± 0.036	1.93 ± 0.043
UUCAUU	2.025 ± 0.0078	2.01 ± 0.053
UUCAUA	1.993 ± 0.0029	1.994 ± 0.002
CUAUUA	2.017 ± 0.013	2.009 ± 0.0054
CUAUUC	2.06 ± 0.024	2.008 ± 0.0052
UUAUUC	2.012 ± 0.0098	2.02 ± 0.079
UUAUUA	1.975 ± 0.0052	1.99 ± 0.02
UUAUAU	1.9416 ± 0.0019	2 ± 0.057
UUAUAA	1.925 ± 0.0034	1.981 ± 0.017
GUAUCG	2.028 ± 0.017	2.05 ± 0.041
GUAUCC	2.015 ± 0.013	2 ± 0.035

Variant	normalized RNA/DNA level without ligand (log10) [1]	normalized RNA/DNA level with ligand (log10) [2]
GUAUCU	2.034 ± 0.0026	2.038 ± 0.011
GUAGCC	2.021 ± 0.016	2.051 ± 0.0086
GUAGCA	1.973 ± 0.0074	2 ± 0.022
GUAGCG	1.93 ± 0.023	2.01 ± 0.036
GUACGU	1.986 ± 0.006	2.03 ± 0.049
CUCGGA	2.044 ± 0.0022	2.0131 ± 0.00036
CUCGGC	2.05 ± 0.027	2.04 ± 0.034
CUCGGG	2.0341 ± 0.00097	2.07 ± 0.046
CUACUA	2.02 ± 0.021	2.05 ± 0.04
CUACUC	2.05 ± 0.021	2.03 ± 0.039
CUACUU	2.03 ± 0.022	2.02 ± 0.039
CUACUG	2.0146 ± 0.00058	2.04 ± 0.024
GUAGAC	1.911 ± 0.0045	2.003 ± 0.01
UUCGAA	1.947 ± 0.018	2 ± 0.027
UUCGAC	1.994 ± 0.0022	2.02 ± 0.037
UUCGAU	1.954 ± 0.0023	2.02 ± 0.033
GUAGUA	1.9662 ± 0.0006	1.98 ± 0.025
GUAGUC	2.038 ± 0.0078	2.03 ± 0.032
GUAGUU	2.003 ± 0.0023	2.02 ± 0.021
AUCCUC	2.1 ± 0.022	2.02 ± 0.025
AUCCUU	2.004 ± 0.01	2.02 ± 0.032
AUCCUG	1.992 ± 0.0066	2.02 ± 0.042
AUCCUA	1.987 ± 0.0057	2.01 ± 0.079
